B1: Ub-TRIF_(601–712) (domain or fragment, human, UniProt Q8IUC6 601-712, looked up)
chain: APYGARMPFGGQVPLGAPPPFPTWPGCPQPPPLHAWQAGTPPPPSPQPAAFPQSLPFPQSPAFPTASPAPPQSPGLQPLIIHHAQMVQLGLNNHMWNQRGSQAPEDKTQEAE
notes: Kept as monomer in 8 M urea; assembly is started by removing the denaturant; also called wildtype TRIF RHIM; source: E. coli BL21(DE3), solubilised in 8 M urea, purified (Ni-NTA); not shown: ubiquitin, N-terminal, kept
B2: YPet-TRIF_(601–712) (domain or fragment, human, UniProt Q8IUC6 601-712, looked up)
chain: B1 chain
notes: source: E. coli BL21(DE3), solubilised in 8 M urea, purified (Ni-NTA); not shown: YPet, N-terminal, kept
B3: mCherry-RIPK1_(497–583) (domain or fragment, human, UniProt Q13546 497-583, looked up)
chain: MPSLHNIPVPETNYLGNTPTMPFSSLPPTDESIKYTIYNSTGIQIGAYNYMEIGGTSSSLLDSTNTNFKEEPAAKYQAIFDNTTSLT
notes: also called RIPK1 RHIM construct; source: E. coli BL21(DE3), solubilised in 8 M urea, purified (Ni-NTA); not shown: mCherry, N-terminal, kept

Columns and labels:
[1] = target: the molecule itself; assay: thioflavin T fluorescence + Congo red absorbance; self-assembly started by dilution from urea into 25 mM NaH2PO4, 150 mM NaCl, pH 7.4, 40 µM ThT, 0.5 mM DTT, 37 °C, 2.5 µM (0.625–5 µM in the concentration series); Congo red on samples dialysed overnight at 0.3 mg/mL
[2] = target: the molecule itself; assay: SDS-agarose gel electrophoresis (SDS-AGE); 5 µM alone or equimolar mixtures, kept in 8 M urea (monomer control) or dialysed overnight against 100 mM NaH2PO4, 20 mM Tris, 0.5 mM DTT, pH 8.0, with or without 2% SDS for 10 min; 1% agarose gel with 0.1% SDS; YPet and mCherry fluorescence imaged and overlaid
[3] = target: B2; assay: as above; conditions: both partners purified

binding result [3] | Binder | binding result [1] | binding result [2]
 | B1 | binds | 
 | B2 |  | binds
binds | B3 |  | binds

Source: PMC9182532, “The RHIM of the Immune Adaptor Protein TRIF Forms Hybrid Amyloids with Other Necroptosis-Associated Proteins” (Molecules, 2022)
